These results are taken from PMC11341946.

This assay deals with RNA polymerase II. Kind of assay: Re-ChIP (IP ERα then IP PolII), real time qPCR. The settings on record: HEK293T cells, read off a plot.
Setting [1] is: complement C3 enhancer, cadmium (2 µM) for 60 minutes.
Where [2] appears, read: complement C3 enhancer, control (untreated).
Where [3] appears, read: complement C3 enhancer, estradiol (100 nM) for 60 minutes.
The mark [4] stands for this setting: lactoferrin enhancer, cadmium (2 µM) for 60 minutes.
The mark [5] stands for this setting: lactoferrin enhancer, control (untreated).
[6] abbreviates: lactoferrin enhancer, estradiol (100 nM) for 60 minutes.

Consider “wild-type estrogen receptor alpha (from UniProt P03372) D538G”, for which the response under setting [1] turned out to be 0.019 % Input; the response under setting [2] amounted to 0.0076 % Input; the response under setting [3] stood at 0.0077 % Input; the response under setting [4] stood at 0.014 % Input; the response under setting [5] was 0.0046 % Input; the response under setting [6] worked out at 0.0061 % Input.

Regarding “wild-type estrogen receptor alpha (from UniProt P03372) Y537S”, the response under setting [1] stood at 0.015 % Input; the response under setting [2] was 0.0065 % Input; the response under setting [3] came out at 0.0073 % Input; the response under setting [4] amounted to 0.0063 % Input; the response under setting [5] stood at 0.0022 % Input; the response under setting [6] came to 0.0022 % Input.
